# Measurements taken from the nanobody polyreactivity screen of Harvey et al. (2022).
# Assay: yeast display, Sf9 membrane polyspecificity reagent, FACS + sequencing; frameworks hold sequencing errors
# How it was run: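 A synthetic nanobody library was expressed on Saccharomyces cerevisiae BJ5465 by galactose induction for 36–48 hours. The library was stained for 1 hour at 4 °C with 10% biotinylated, detergent-solubilized Sf9 membrane reagent and enriched with streptavidin microbeads before FACS. Low and high (top ~1%) gates were set on anti-HA fluorescence for expression and streptavidin fluorescence for reagent binding, and each polyreactivity label reflects the gate of origin.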
row,Sequence,polyreactivity (PSR sort gate)
1,QVQLVESGGGLVQAGGSLRLSCAASGFIFANNAMGWYRQAPGKEREWVAAITSRGGGTYYADSVKGRFTISRDNAKNTVYLQMNCLKPEDTAVYYCAVRTYRFRHWPKYDYWGQGNQVTVSS,high polyreactivity
2,QVQLVESGGGLVQAGGSLRLSCDASGFIFRRYTMGWNRQAPGKETELVPAITSSGGTNYADSVKGRFTISRDNAKNNVFVLRNSLKPEDTAVYYCAARRLTQQGYGGGYWGQGTQVTVAS,high polyreactivity
3,QVQLVESGGGLVQAGGSLRLCCAASGIIFDGYAMGWYRQAPGKERELVAGITIGDITYYADSVKGRFTISRDNAKNTVYLQMTSLKPEDTAVYYCAADSYYYQTAYDYWGQGTQVTVSS,low polyreactivity
4,QVQLVESGGGLVQAGGSLRLSCAASGRIFGRYAMGWYRQAPGKERELVAAISVSGGSTYYADSVKGRFTISRDNAKNTVYLQMNSLKPEDTAVYYCATEWRPRYYGTEPFDSWGQGTQVTVSS,high polyreactivity
5,QVQLVESVGGLVQAGGSLRLSCAASGFIFTHYAMGWYRQAPGKERELVAAISSGGSTYYADSVKGRFTISRDNAKNTVYLQMNSLKPEDTAVYYCAAVWPWRYYATGENYWGQGTHVTVSS,high polyreactivity
6,QVQLVESGGGLVQAGGSLRLSCAASGRIFTGYAMGWYRQAPGTERELVAAISDGGSTNYADSVKGRFTISRDNAKNTVYLQMNSLKPEDTAVYYCAADGHSSDKYDYWGQGTQVTVSS,low polyreactivity
7,QVQLVESGGGLVQAGGSLRLSCAASGRTFSGYAMGWYRQAPGTERELVAAIDRGDGTNYADSVKGRFTISRDNAKNTVYLQMNSLKPEDTAVYYCAADYSYGSTSHTYTGFDYWGQGTQVTVSS,low polyreactivity
8,QVQLVESGGGLVQAGGSLRLSCAASGLTFRRYAMGWYRQAPGKERELVAAISSSGGNTYYADSVKGRFTISRDNAKNTVYLQMNSLQPEDTAVYYCATRYKSPSFDYWGQGTQVTVSS,high polyreactivity
9,QVQLVESGGGLVQAGGSLRLSCAASGSIFARYTMGWYRQAPGKERELVAAISSSGTSTYYADSVKGRFTISRDNAKNTVYLQMNSLKPEDTAVYYCAADWYYHYGYWGQGTQVTVSS,high polyreactivity
10,QVQLVESGGGLVQPGGSLRLSCAASGRIFGWYARGWYRPAPGKERELVAAISRGGTRTNYADSVKGRFTISRDNAKNTVYLQMNSLKPEETAVYYCAARRYSRDFDYWGQGTQVTVSS,high polyreactivity
11,QVQLVESGGGLVQAGGSLRLSCAASGRIFDPYAMGWYRQAPGKERELVAAINIGGGTNYADSVKGRFTISRDNAKNTVYLQMNSLKPEDTAVYYCAAPVPAYQFYYRLKSFGRRYDHWGQGTQVTVSS,low polyreactivity
12,QVQLVESGGGLVQAGGSLRLSCAASGSIFPGYAMGWYRQAPGKERELVAGITWSDARTYYADSVKGLFTISRDNAKNTVYLQMNSLKPEDTAVYYCAADYYYYERDYWGQGTQVTVSS,low polyreactivity
13,QVQLVESGGGLVQAGGSLRLSCAASGFTFGSYAMGWYRQAPGKDRELVAAISSNGGNTYYADSVKGRFTISRDNAKNTVYLQMNSLKPEDTAVYYCARDRQSRSLLEYDFWGQGTQVTVSS,high polyreactivity
14,QVQLVESGGGLVQAGGSLRLSCAASGGIFIDYALGWYRQAPGKERELVAAITYSGTSTSYADSVKGRFTISRDNAKITVYLQMNSLKPEDTAVYYCNTYPVLFYVGLDYWGQGTQVTVSS,low polyreactivity
15,QVQLEESAGGLVQAGGSLRLSCAASGSIFFWNDLGWYRQAPGKERELVAAISWSGGSTSYADSVKGRFTISRDNAKNTVYLQMNSLKPEDTAVYYCAADFYYRTLYGYIGMDYWGQGTQVTVSS,low polyreactivity
16,QVQLVESGGGLVQAGGSLRLTCAAYGRIYINTMGWYRQPPGKERELVAAITWSGGNTYYADSVKGRFTISRDNAKNTVYLQMNSLKPEDTAVYYWAVGGYLRSVSYIRLGNYYWGQGTQVTVSS,high polyreactivity
17,QVQLVESGGGLVQAGGSLRLSCAASGSIFAWYAMGWYRPAPGKERELVATITWSGGSTYYADSVKGRVTISRDNAKNTVYLQMNSLKPEDTAVYYCAAEVLGIWYDLWDQGDYGGQGTQVTVSS,low polyreactivity
18,HVQLVESGGGLVQAGGSLRLSCAASGRTFIYNAMGWYRQAPGKEREFVAANTWSGATTRYADSVKGRFTISRDNAKNTVYLEMNSLKPEDTAVYYCAKGGFYYYGWRSSMDYWGQGTQVTVSS,high polyreactivity
19,QVQLVESGGGLVQAGGSLRLICAASGRISKRYTMGWYRQAPGKERELVAAINSSTSKSYADSVKGRFTISRDNAKNTVYLQMNSLKPEDTAVYYCNARYNYSYDYNYWGQGTQVTVSS,low polyreactivity
20,QVQLEESGRGLVQAGGSLRLSCAASGSTLSTYSMGWYRQAPGKERELVAAITWSDDSTYYADSVKGRFTISRDNAKNTFYLQMNSLKPEDTAVYYCAAEYISWYFGYDYWGQGTQVTVSS,high polyreactivity
21,QVQLVESGGGLVQAGGCLRLSCAASGFTLRYNAMGWSRQAPGKERELVAAITTGGRTNYADSVKGRFTISRDNAKKTVYLQMNSLKPEDTAVYNCNKVFRSFDYWGQGTQVTVSS,high polyreactivity
22,QVQLVESGGGLVQAGGSLRLSCAASGFTFTYNAMGWYRKAPGKERELVAALTANGGGTNYADSVKGRFTISRDNAKNTVYLQMNSLKPEDTAVYYCAATIVVAVFESLGFYWYTEDNYWGQGTQVTVSS,low polyreactivity
23,QVQLVESGGGLVQAGGSLRLSCAASGRIFPRNVMGWYRQAPGKERELVAAISSRGTRTYYADSVKGRFTISRDNAKNTVYLQMYSLKPEDTAVYYCAADGPYEGYDYWGQGTQVTVSS,high polyreactivity
24,QVQLVESGGGLVQAGGSLRLSCAASGSTVAYYAMGWYRQAPGKERELVAAITWNGGRTFYADSVKGRFTISRDNAKNTVYLQMNSLKPEDTAVYYCAAATYQSRYFQRFDYWGQGTQVTVSS,high polyreactivity
25,QVQLVESGGGLVQAGGSLRLSCAASGRTFAKYAMAWYRQAPGKERELVAAINSSGGSTYYADSVKGRFTISRDNAKNTVYLQMNSLKPEDTAVYFCAALGIGSYRRYSGYDYWGQGTQVTVSS,low polyreactivity
26,QVQLVESGGGLVQAGGSLRLSCAASGRIFGTYAMGWYIQAPGKERELVAGITWRTASTYYADSVKGRFTISRDNAKNTVYLQMNSLKPEDTAVYYCNADAWVWYYYYSYDYWGQGTQVTVSS,low polyreactivity
27,QVQLVESGGGLVQAGGSLRLSCAAYGSIFVLNAMGWYRQAPGKERQLVAAITNVGSTYYADSVKGRFTISRDNAKNTVYLQMNSLKPEDTAVYYCNADPGEVLVGYDYWGQGTQVSVSS,low polyreactivity
28,QVQLVESGGGLVQAGGSLRLSCAASGRTFAPYAMGWYRQAPGKERELVAAISWSGGSTYYADSVKGRFTISRDNAKNTVYLQMNSLKPEDTAVYYCAADGGQTEFDYWGQGTQVTVSS,high polyreactivity
29,QVQLVESGGGLVQAGGSLRLSCAASGRIFNLYAMGWYRQAPGKERELVAGIRWSTGSTYYADSVKGRFTISRDNAKNTVYLQMNSLKPEDTAVDYCAVRYYCSGRYYYTYYSWGQGTLVTVSS,high polyreactivity
30,QVQLVESGGGLVQAGGSLRLSCAASGSIFIAYGMGWYRQEPGKERELVAAITVSGGNTYYADSVKGRFTISRDNAKNTVYLQMYSLKPEDTAVYYCADVTYWQDGHRGNYWGQGTQVTVSS,low polyreactivity
